{
  "source": "the nanobody polyreactivity screen of Harvey et al. (2022)",
  "data": [
    {"test": "yeast display, Sf9 membrane polyspecificity reagent, FACS + sequencing; frameworks hold sequencing errors", "procedure,_shortened": "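A nanobody's polyreactivity label depends on the gate it was sorted from. Yeast display cells were stained with 10% biotinylated, detergent-solubilized Sf9 membrane reagent for 1 hour at 4 °C, enriched on streptavidin microbeads and sorted by FACS. The low and high (top ~1%) gates were set on anti-HA fluorescence for expression and streptavidin fluorescence for reagent binding.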", "values": [
      {"sequence": "QVQLVESGGGLVQAGGSLRLSCAASGRTFGIYAMGRYRQAPGKERELVAAITGRGGSTHYADSVKGRFTISRDNAKNTVYLQMNSLKPEDTAVYYCAADYRYNRGITSNKDYDYWGQGTQVTVSS", "polyreactivity (PSR sort gate)": "low polyreactivity"},
      {"sequence": "QVQLVESGGGLVQAGGSLRLSCAASGYIFGYYAMGWYRQAPGKERELVAAIRSGGNTYYADSVKGRFTISRDNAKNTVYLQMNSLKPEDTAVYYCAKRYGRFSDYWGQGTQVTVSS", "polyreactivity (PSR sort gate)": "high polyreactivity"},
      {"sequence": "QDQLVESGGGLVQAGGSLRLSCAASGRILPYYTMGWYRQAPGKERELVAAISKRGTSTYYADSVKGRFTISRDNAKNTVYLQMNSLKPEDTAVYYCAKRGPGVDYDYWGQGTQVTVSS", "polyreactivity (PSR sort gate)": "high polyreactivity"},
      {"sequence": "QVQLVESGGGLVQAGGSLRLSCAASGFIFSTYAMGWYRQAPGKERELVASIDWSGDSTYYADSVKGRFTISRDNAKNTVYLQMTSLKPEDTAVYEFAADDASYPYIFDSYDYWGQGTQVTVSS", "polyreactivity (PSR sort gate)": "low polyreactivity"},
      {"sequence": "QVQLVESGGGLVQAGGSLRLSCAASGFTFKYYAMGWYRQAPGKERELVAAIRRSAGSTNYADSVKGRFTISRDNAKNTVYLQMNSLKPEDTAVYYCNTVGTRQPMDYWGQGTQVTVSS", "polyreactivity (PSR sort gate)": "high polyreactivity"},
      {"sequence": "QVHLVDSGVGLVQAGGSLRLSCAASGYTFVPYAMGWYRQAPGKERELVAAISSSGGSTYYADAVKGRFTISRDNAKNTVYLQMNSRKPEDSAVYYWAADYRTGQFYAGFDYWGQGTQVTVSS", "polyreactivity (PSR sort gate)": "high polyreactivity"},
      {"sequence": "QVQLVESRGGLVQAGGSLRLSCAASGRTIYPYTMGCYRQAPGKERELVAAISSSGTRTYYADSVKGRFTISRDIAKNTVYLQMNSLKPEDTAVYDCATRRPGSFGYWGQGTQVTVSS", "polyreactivity (PSR sort gate)": "high polyreactivity"},
      {"sequence": "QVQLVESGGGLVQAGGSLSLSCAASGRTLYQYAMGWSRQAPGKERELVAAITTSGGSTYYADSVKGRFTISRDNAKNTVYLQMNSLKPEDTAVYYCAAPYTGYRERGYYKSDYWGQGTQVTESS", "polyreactivity (PSR sort gate)": "low polyreactivity"},
      {"sequence": "QVQLVESGGGLVQAGGSLRLSCAASGRIFTFYAMGWYRQAPGKERELVAAISSGGSTYYADSVKGRFTISRDNAKNTVYLQMHSLKPEDTAVYYCAAEPVWYADYDYWGQGTQVTVSS", "polyreactivity (PSR sort gate)": "low polyreactivity"},
      {"sequence": "QVQLVESGGGLVQAGGSLRLSCAASGITFKYNAMGWYRQAPGKERELVAAISSGGNTYYADSVKGRFTISRDNAKNTVYLQMNSLKPEDTAVYYCAAPSYDTLWHDYWGQGTQVTVSS", "polyreactivity (PSR sort gate)": "low polyreactivity"},
      {"sequence": "QVQLVESGGGLVQAGGSLRLSCAASGFTFIRYAMGWYRQAPGKERELVATITRRGGSTYYADSVTGRFTISRDNAKNTVYFQMNSLKPEDTAVYDCNRDYVTYGQYYYWGQGTQVTVSS", "polyreactivity (PSR sort gate)": "high polyreactivity"},
      {"sequence": "QVQLVESGGGLVQAGGSLRLSCAASGSTFWDYTMGWYRQAPGKERELVAAINYSDGSTYYADSVKGRFTISRDNAKNTVYLQMNSLKPEDTAVYYCAAGSDPTGRRYDYWGQGTQVTVSS", "polyreactivity (PSR sort gate)": "low polyreactivity"},
      {"sequence": "QVQLVESGGGLVQAGGSLRLSCAASGSIFEVYAMGWYRQAPVKERELVAAIDYSDGTTYYADSVKGRFTISRDNAKNTVYFQMNSLKPEDTAVYYCAADFPGQHYDYWGQGTQVTVSS", "polyreactivity (PSR sort gate)": "low polyreactivity"},
      {"sequence": "QVQLVESGGGLVQAGGSLRLSCAASGSIFMGNAMGWYRQAPGKERELVATITSSGSTSYADSVKGRFTISRDNAKNTVYVQMNSLKPEDTAVYYCNTDLFQYGRTSTIYYEYDYWGQGTQVTVSS", "polyreactivity (PSR sort gate)": "high polyreactivity"},
      {"sequence": "QVQLVESGGGLVQAGGSLRLSCAASGLTFNWYAMGWYRQAPGKERELVAAINRRGVITYYADSVKGRFTISRDNAKNTVYLQMNSLKPEDTAVYYCNAAYGYVSRVYYLIEHDYWGQGTHVTVSS", "polyreactivity (PSR sort gate)": "high polyreactivity"},
      {"sequence": "QVQLVESGGGLVQAGGSLRLSCASSGSTFSSYAMGRYRQAPGKERELVAAITRGGSTNYADSVKGRFTISRDNAKNTVYLQMNSLKPEYTAVYYCAADGPIVGTMDYWGQGTQVTVSS", "polyreactivity (PSR sort gate)": "high polyreactivity"},
      {"sequence": "QVQLVESGGGLVQAGGSLRLSCAASGITFGRNTMGWYRQAPGKERELVAAIDSGGNTYADSVKGRFTISRDNAKNTVYLQMNSLKPEDTAVYYCAVDGGEFSSYGYWGLGTQVTVSS", "polyreactivity (PSR sort gate)": "low polyreactivity"},
      {"sequence": "QVQLVESGGGLVQAGGSLRLSCAASGRTFRKYAMGWYRPAPGKERELVAAISWSGGSTRYADYVKGRFTISRDNEKNTVYLQMNSLKPEDTAVYYCNAVRRYRSTHPSYHTFNYWGQGTQVTVSS", "polyreactivity (PSR sort gate)": "high polyreactivity"},
      {"sequence": "QVQLVESGGGLVQAGGSLRLSCAASGSIFWVNAMGWYRQAPGQVSELVAAINYSDGSTSYADSVKGRFTISRDNAKNTVYLQMNSLKPEDTAVYYCNAESFELMYYWGQGTQVTVSS", "polyreactivity (PSR sort gate)": "low polyreactivity"},
      {"sequence": "QVQLVESGGGLVQAGGILRLSCAASGSIFKYYAMGWYRQAPGKERELVADISFGGDSTYYADSVKGRFTISRDNAKNTVYLQMNSLIPEDTAVYYCAAARYFWFVEYDYWGQGTQVTVSS", "polyreactivity (PSR sort gate)": "low polyreactivity"},
      {"sequence": "QVQLVESGGCLVQAGGSLRLSCAASGLTIFVNAMGWYRQAPGKERELVATISGGGSTYYADSVKGRFTISRDNAKNTVYLQMNSLKPEDTAVYYCNGGGYGLRGDYWGQGTQVTVSS", "polyreactivity (PSR sort gate)": "low polyreactivity"},
      {"sequence": "QVQLVESGGGLVQAGGSLRLSCAASGLTFVKNVMGWYRQAPGKERELVAAISRRGGSTYYADSVKGRFTISRDNAKNTVYLQMNSLKPEDTAVYSCNAVLNHLSYIYPAVGYWGQGTQVTVSS", "polyreactivity (PSR sort gate)": "high polyreactivity"},
      {"sequence": "QVQLVESGGGFVQAGGSLRLSCASSGRTFRLYAMGWYRQAPGKERELVDVIRSGDSTNYADSVKGRFTISSDNAKNTVYLQMNSVKPEDTAVYYCAADVLYYYGKYDYWGQGTQVTVSS", "polyreactivity (PSR sort gate)": "high polyreactivity"},
      {"sequence": "QVQLVESGGGLVQAGGSLRLSCAASGSIFAWYAMGWYRRAPGKESELVAAITWSGGSTYYADSVKGRFTISRDNAKNTVYLQMNSMKQEDTAVYYCAVEWYYRNNAIISGYYYWGKGTQVTVSS", "polyreactivity (PSR sort gate)": "high polyreactivity"},
      {"sequence": "QDQLVESGGGLVQAGGSLRLSCAASGRTFHRNAMGLYRQAPGKERELVAAITGTGGRTYYADSVKGRFTISRDNAKNTVYLQMNSLKPEDTEVYYCAARPWIKSGYWGQGTQVTVSW", "polyreactivity (PSR sort gate)": "high polyreactivity"},
      {"sequence": "QVQLVESGGGLVQAGGSLRLSCAASGRIFPFNDMGWYREAPGKEREFVADISDNGGSTYADSVKGRFTISRDNAKNTVYLQMNSLKPEDTAVYYCNAVYTSYRGGYYYWGQGTQGTVSS", "polyreactivity (PSR sort gate)": "low polyreactivity"},
      {"sequence": "QVQIVDSGGGLVQAGGSLRLSCAASGSTFKPYAMGWYRQAPGKERELVAAITFSGGSTYYADSVKGRFTISRDNAKNTVYLQMNSLKPEDTAVYDCAARAFKFNGYYYWGQGTQVTVSS", "polyreactivity (PSR sort gate)": "high polyreactivity"},
      {"sequence": "QVQLVESGGGLVQAGGSLRLSCAASGFTFSHYAMGLSRQAPGKERELVAAITWSGGSTYYADSVKGRFTISRDNAKNTVYLQMKSLKPEDTAVYYCIALVIARNIEMDYWGQGTQVTVSS", "polyreactivity (PSR sort gate)": "high polyreactivity"},
      {"sequence": "QVQLVESGGGLVQAGGSLRLSCAASGFIFIYNAMGWYRHAPGKERELVATINWSGGDSTYYADSVKGRFTISRDKAKNTVSLQMNSLKPEDTSVYYCATLSWYQQAYDYWGQGTQVTVSS", "polyreactivity (PSR sort gate)": "low polyreactivity"},
      {"sequence": "QVQLVESGGGLVQAGGSLRLSCAASGYTFWFYAMGWYRQAPGKEREFVATISRSGGSTYYADSVKGRFTISRDNAKNTVYLQMNSLKPEDTAVYYCNARGPRSHRYDYWGQGTQVTVSS", "polyreactivity (PSR sort gate)": "high polyreactivity"},
      {"sequence": "QVQLVESGGALLQAGGSLRLSCAASGFIFRYYAMGWYRQAPGKERELVAAISESGASTYYADSVKGRFTISRDNAKNSVYLQMNSLKPEVTAVYYCAAKPRNSGPYYFYDLNYWGQGTQVTVSS", "polyreactivity (PSR sort gate)": "high polyreactivity"},
      {"sequence": "QVQLVESGGGLVQAGGSLRLSCAASGSTFTINVMGWYRQAPGKERELVAAINGGGRTNYADSVKGRFTISRDNAKNTVYLQMNSLKPEDTAVYYCNARYGNESQGWEDYWGQGTKVTVSS", "polyreactivity (PSR sort gate)": "low polyreactivity"}
    ]}
  ]
}
